The numbers were not newly measured in paper PMC6051640, which cites them from elsewhere.

A word on the Kd: it is the equilibrium constant for the complex coming apart.

In the data set the target is retinol binding protein (Homo sapiens) (UniProt P02753).

Turning to Stra6 (from UniProt Q9BX79), the Kd was 59 nM.
